Publication PMC2191786

Biological target: B7-1 on stably transfected B7-1+ Chinese hamster ovary (CHO) cells (human) (UniProt P33681)
Assay: ELISA

Chain of UniProt P33681 (P33681 35-288): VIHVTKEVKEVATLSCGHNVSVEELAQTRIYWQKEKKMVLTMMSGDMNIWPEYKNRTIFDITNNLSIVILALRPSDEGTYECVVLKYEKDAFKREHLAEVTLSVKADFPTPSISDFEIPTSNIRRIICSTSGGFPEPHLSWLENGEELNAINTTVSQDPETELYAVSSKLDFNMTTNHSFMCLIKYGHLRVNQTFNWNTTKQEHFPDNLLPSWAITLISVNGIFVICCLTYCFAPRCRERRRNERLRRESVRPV

| Substance | percentage of B7-1 binding activity (of CTLA4Ig) [%] |
| --- | --- |
| CTLA4Ig Y100A (Fc fusion) | 3 |
| CTLA4Ig P103A (Fc fusion) | < 0.1 |
| CTLA4Ig P102A (Fc fusion) | 3 |
| CTLA4Ig Y104A (Fc fusion) | < 0.1 |
| CTLA4Ig M99A (Fc fusion) | < 0.1 |
